Key:
2XMBP-BRC1-4-DBD = target: T1, 2XMBP-BRC1-4-DBD (Homo sapiens, UniProt P51587;P51587 993-1589;2153-3418); assay: EMSA
T1 chain 1: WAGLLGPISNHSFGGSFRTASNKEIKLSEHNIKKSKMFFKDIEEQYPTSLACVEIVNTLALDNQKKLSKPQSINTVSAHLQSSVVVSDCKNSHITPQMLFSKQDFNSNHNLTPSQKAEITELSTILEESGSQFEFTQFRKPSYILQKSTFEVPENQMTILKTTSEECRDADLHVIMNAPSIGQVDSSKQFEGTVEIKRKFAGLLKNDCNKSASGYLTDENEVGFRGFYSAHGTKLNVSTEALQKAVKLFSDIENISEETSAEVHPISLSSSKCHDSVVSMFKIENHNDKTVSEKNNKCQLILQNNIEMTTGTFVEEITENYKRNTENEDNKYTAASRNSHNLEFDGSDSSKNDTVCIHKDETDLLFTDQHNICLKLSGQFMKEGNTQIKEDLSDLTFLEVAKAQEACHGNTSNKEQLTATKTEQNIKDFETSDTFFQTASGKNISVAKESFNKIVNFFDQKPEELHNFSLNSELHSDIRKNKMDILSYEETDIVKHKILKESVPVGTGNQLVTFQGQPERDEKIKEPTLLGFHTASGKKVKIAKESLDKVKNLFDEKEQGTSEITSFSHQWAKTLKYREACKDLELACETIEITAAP
T1 chain 2: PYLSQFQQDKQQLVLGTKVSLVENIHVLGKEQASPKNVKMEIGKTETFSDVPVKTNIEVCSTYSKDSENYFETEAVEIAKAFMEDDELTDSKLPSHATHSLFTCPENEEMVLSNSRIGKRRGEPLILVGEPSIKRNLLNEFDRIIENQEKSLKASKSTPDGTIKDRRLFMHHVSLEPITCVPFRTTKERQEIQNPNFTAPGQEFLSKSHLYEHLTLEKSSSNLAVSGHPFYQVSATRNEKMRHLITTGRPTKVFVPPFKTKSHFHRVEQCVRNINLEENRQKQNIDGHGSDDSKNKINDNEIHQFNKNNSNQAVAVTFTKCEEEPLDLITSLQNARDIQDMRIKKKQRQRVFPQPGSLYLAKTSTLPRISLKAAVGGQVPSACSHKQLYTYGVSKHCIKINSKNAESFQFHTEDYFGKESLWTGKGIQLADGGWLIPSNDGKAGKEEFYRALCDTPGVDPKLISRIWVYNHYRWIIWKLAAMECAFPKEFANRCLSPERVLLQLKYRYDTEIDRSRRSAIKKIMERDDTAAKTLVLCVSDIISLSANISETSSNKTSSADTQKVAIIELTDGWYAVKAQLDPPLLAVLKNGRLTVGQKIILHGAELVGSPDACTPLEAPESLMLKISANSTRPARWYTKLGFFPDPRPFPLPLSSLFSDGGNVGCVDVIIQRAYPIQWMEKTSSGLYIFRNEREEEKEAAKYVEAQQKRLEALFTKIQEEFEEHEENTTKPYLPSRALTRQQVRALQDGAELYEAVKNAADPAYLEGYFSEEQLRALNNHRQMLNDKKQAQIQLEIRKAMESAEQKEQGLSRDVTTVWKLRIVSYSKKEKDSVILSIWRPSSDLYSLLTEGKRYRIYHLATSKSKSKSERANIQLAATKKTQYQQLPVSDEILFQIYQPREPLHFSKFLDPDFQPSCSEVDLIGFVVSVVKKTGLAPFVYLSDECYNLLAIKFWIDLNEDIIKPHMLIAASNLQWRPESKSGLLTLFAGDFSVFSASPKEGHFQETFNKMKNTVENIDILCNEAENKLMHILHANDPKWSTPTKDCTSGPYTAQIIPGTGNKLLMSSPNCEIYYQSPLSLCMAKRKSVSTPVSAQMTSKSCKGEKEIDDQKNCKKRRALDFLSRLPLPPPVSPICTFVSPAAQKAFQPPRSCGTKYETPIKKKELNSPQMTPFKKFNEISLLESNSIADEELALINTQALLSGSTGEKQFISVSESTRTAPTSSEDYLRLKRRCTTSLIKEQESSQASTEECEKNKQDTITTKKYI

2XMBP-BRC5-8-DBD = 2XMBP-BRC5-8-DBD (Homo sapiens, UniProt P51587 1596-3418); assay: EMSA
2XMBP-BRC1-8-DBD = 2XMBP-BRC1-8-DBD (Homo sapiens, UniProt P51587 993-3418); assay: EMSA
2XMBP-BRCA2 DBD [1] = target: T2, 2XMBP-BRCA2 DBD (Homo sapiens, UniProt P51587 2153-3418); assay: EMSA
T2 sequence: T1 chain 2

2XMBP-BRC4-DBD = target: T3, 2XMBP-BRC4-DBD (Homo sapiens, UniProt P51587;P51587 1496-1589;2153-3418); assay: EMSA
T3 chain 1: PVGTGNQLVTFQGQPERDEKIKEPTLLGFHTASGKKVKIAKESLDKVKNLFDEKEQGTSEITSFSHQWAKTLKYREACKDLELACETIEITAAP
T3 chain 2: T1 chain 2

2XMBP-BRCA2 DBD [2] = target: T2, 2XMBP-BRCA2 DBD; assay: pull-down
RAD51;2XMBP-BRC1-4-DBD = RAD51;2XMBP-BRC1-4-DBD (Homo sapiens;Homo sapiens, UniProt Q06609;P51587;P51587 1-339;993-1589;2153-3418, |); assay: pull-down
RAD51;2XMBP-BRC1-8-DBD = RAD51;2XMBP-BRC1-8-DBD (Homo sapiens;Homo sapiens, UniProt Q06609;P51587 1-339;993-3418, |); assay: pull-down
RAD51;2XMBP-BRC5-8-DBD = RAD51;2XMBP-BRC5-8-DBD (Homo sapiens;Homo sapiens, UniProt Q06609;P51587 1-339;1596-3418, |); assay: pull-down

Measured: binding result

Chain of RAD51;2XMBP-BRC5-8-DBD (Q06609 whole entry, one chain of several): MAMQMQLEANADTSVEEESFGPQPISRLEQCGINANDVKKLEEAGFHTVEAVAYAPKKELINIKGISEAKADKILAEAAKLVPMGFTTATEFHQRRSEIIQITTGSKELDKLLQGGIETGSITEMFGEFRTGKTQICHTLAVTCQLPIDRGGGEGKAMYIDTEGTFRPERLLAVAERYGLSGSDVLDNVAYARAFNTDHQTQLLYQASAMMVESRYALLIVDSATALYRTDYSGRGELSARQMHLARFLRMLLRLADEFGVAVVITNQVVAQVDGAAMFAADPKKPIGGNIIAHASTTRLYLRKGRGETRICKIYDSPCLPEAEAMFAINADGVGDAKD
Chain of RAD51;2XMBP-BRC1-8-DBD (Q06609 whole entry, one chain of several): as above
Chain of RAD51;2XMBP-BRC1-4-DBD (Q06609 whole entry, one chain of several): as above

B1: 3' tail DNA (RJ-167-mer / RJ-PHIX-42-1) (mixed)
DNA 1: CTGCTTTATCAAGATAATTTTTCGACTCATCAGAAATATCCGTTTCCTATATTTATTCCTATTATGTTTTATTCATTTACTTATTCTTTATGTTCATTTTTTATATCCTTTACTTTATTTTCTCTGTTTATTCATTTACTTATTTTGTATTATCCTTATCTTATTTA
DNA 2: CGGATATTTCTGATGAGTCGAAAAATTATCTTGATAAAGCAG
binds: 2XMBP-BRC1-4-DBD | 2XMBP-BRC5-8-DBD | 2XMBP-BRC1-8-DBD | 2XMBP-BRCA2 DBD [1] | 2XMBP-BRC4-DBD

B2: biotinylated ssDNA RJ-167-mer (ssDNA)
DNA: B1 DNA 1
binds: 2XMBP-BRCA2 DBD [2] | RAD51;2XMBP-BRC1-4-DBD | RAD51;2XMBP-BRC1-8-DBD | RAD51;2XMBP-BRC5-8-DBD

Source: paper PMC4914107 (Nucleic Acids Research, 2016)
